Test results from patent US20030148956A1 (PROCTER AND GAMBLE, published 2003).
Ends that are not written are not given here.

T1: CRF2R
T1 sequence (Q13324 whole entry, species assumed, looked up): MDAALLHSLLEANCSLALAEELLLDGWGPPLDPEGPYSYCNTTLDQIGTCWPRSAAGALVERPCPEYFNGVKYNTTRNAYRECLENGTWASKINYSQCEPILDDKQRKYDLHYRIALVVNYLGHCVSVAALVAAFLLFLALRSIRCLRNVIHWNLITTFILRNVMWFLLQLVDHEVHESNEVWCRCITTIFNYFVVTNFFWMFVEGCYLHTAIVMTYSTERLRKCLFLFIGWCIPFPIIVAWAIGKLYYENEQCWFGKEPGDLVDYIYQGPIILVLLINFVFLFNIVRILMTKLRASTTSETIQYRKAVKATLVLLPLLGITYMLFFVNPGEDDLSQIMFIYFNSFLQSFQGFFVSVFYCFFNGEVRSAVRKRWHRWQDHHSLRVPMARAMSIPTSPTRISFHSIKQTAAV


Tests used:
[1] = molecular target: T1, CRF2R; assay: cell-based or functional assay
[2] = molecular target: CRF1R; assay: cell-based or functional assay

Row | CRF2R EC50 [1] | CRF2R Emax [1] | CRF1R EC50 [2] | CRF1R Emax [2] | Binder
1 | 12.6 nM | 90.2% | 1000 nM | 26.9% | DNPSLSIDLPLQLLRTLLELARTQSQRERAEQNAIIFASV-NH2 [SEQ ID NO 176]
2 | 25.1 nM | 100% | 323 nM | 100% | ZGPPISIDLPHWLLRKMIEIEKQEKEKQQAANNRLLLDTI (C-terminal amide) [SEQ ID NO 186]
3 | 10.3 nM | 100% | 31.6 nM | 72% | ZGPPISIDLPWFLLRKMIEIEKQEKEKQQAANNRLLLDTI (C-terminal amide) [SEQ ID NO 187]
4 | 14.6 nM | 100% | 162 nM | 96% | ZGPPISIDLPLLLLRKMIEIEKQEKEKQQAANNRLLLDTI (C-terminal amide) [SEQ ID NO 188]
5 | > 100 nM | 7% | > 100 nM | 11% | SEEPPISLDVPIGLLQEVLEMARAEQLAQQAHSNRKLMEII-NH2 [SEQ ID NO 162]
6 | > 100 nM | 88% | > 100 nM | 77% | SEEPPISLDLTFHLLREVLEMARAEQLAQQAHTNARILARV-NH2 [SEQ ID NO 161]
7 | 4.49 nM | 96% | > 100 nM | 13% | IVLSLDVPIGLLQILLEQARARAAREQATSNRKLMEII-NH2 [SEQ ID NO 163]
8 | 10.2 nM | 96% | 260 nM | 98% | ZGPPISIDLPFQLLRKMIEIEKQEKEKQQATTNRLLLATV (C-terminal amide) [SEQ ID NO 17]
9 | 39.6 nM | 31% | > 100 nM | 9% | ZGPPISIDLPFVLLRKMIEIEKQEKEKQQAANNRLLLDTI (C-terminal amide) [SEQ ID NO 190]
10 | 13.5 nM | 100% | 1000 nM | 68% | ZGPPISIDVPFQLLRKMIEIEKQEKEKQQATTNARILARV (C-terminal amide) [SEQ ID NO 172]
11 | 7 nM | 96% | 62.2 nM | 57% | ZGPPISIDLPFILLRKMIEIEKQEKEKQQAANNRLLLDTI (C-terminal amide) [SEQ ID NO 189]
12 | 5.29 nM | 97% | 106 nM | 100% | ZGPPISIDLPFQLLRKMIEIEKQEKEKQQATTNRLLLDRV (C-terminal amide) [SEQ ID NO 18]
13 | 7.42 nM | 75% | 232 nM | 83% | ZGPPISIDLPFQLLRKMIEIEKQEKEKQQATTNRLLLARV (C-terminal amide) [SEQ ID NO 19]
14 | 5.17 nM | 96.5% | 1000 nM | 55.7% | DNPSLSIDLPLFLLRTLLELARTQSQRERAEQNAIIFASV-NH2 [SEQ ID NO 178]
15 | 3.14 nM | 95.7% | 125 nM | 99.3% | DNPSLSIDLPFLLLRTLLELARTQSQRERAEQNAIIFASV-NH2 [SEQ ID NO 180]
16 | 2.24 nM | 92% | > 100 nM | 26% | IVLSLDVPIGLLQILLEMARAEQLAQQAHSNRKLMEII-NH2 [SEQ ID NO 164]
17 | 4.42 nM | 97.2% | 1000 nM | 29.1% | DNPSLSIDLPLLLLRTLLELARTQSQRERAEQNAIIFASV-NH2 [SEQ ID NO 174]
18 | 3.7 nM | 99% | 438 nM | 95% | IVLSLDVPIGLLQILIEIEKQEKEKQQAANNARILARV-NH2 [SEQ ID NO 166]

Row | CRF2R EC50 [1] | CRF2R Emax [1] | CRF1R EC50 [2] | CRF1R Emax [2] | Binder
19 | 100 nM | 65.2% | 1000 nM | 6.05% | DNPSLSIDLPTYLLRTLLELARTQSQRERAEQNAIIFASV-NH2 [SEQ ID NO 173]
20 | > 100 nM | 75% | > 100 nM | 19% | IVLSLDVPIGLLQEVLEMARAEQLAQQAHSNRKLMEII-NH2 [SEQ ID NO 165]
21 | 4.9 nM | 75% | 1000 nM | 52% | IVLSLDVPIGLLQILIEIEKQEKEKQQAATTNARILARV-NH2 [SEQ ID NO 168]
22 | 9.15 nM | 87% | > 100 nM | 10% | IVLSLDVPIGLLQTLLELARTQSQRERAEQNRIIFDSV-NH2 [SEQ ID NO 160]
23 | 6.37 nM | 89% | > 100 nM | 15% | IVLSLDVPIGLLQILLEIEKQEKEKQQAANNRLLLDTI-NH2 [SEQ ID NO 158]
24 | 5.22 nM | 97.8% | 154 nM | 100% | DNPSLSIDLPFILLRTLLELARTQSQRERAEQNAIIFASV-NH2 [SEQ ID NO 181]
25 | 13 nM | 100% | 1000 nM | 15% | IVLSLDVPIGLLQILLEQEKQEKEKQQATTNARILARV-NH2 [SEQ ID NO 167]
26 | 8.98 nM | 100% | 358 nM | 95.8% | DNPSLSIDLPFHLLRTLLELARTQSQRERAEQNAIIFASV-NH2 [SEQ ID NO 185]
27 | 5.42 nM | 92.2% | 1000 nM | 34.8% | DNPSLSIDLPLILLRTLLELARTQSQRERAEQNAIIFASV-NH2 [SEQ ID NO 175]
28 | 7.21 nM | 91.4% | 409 nM | 89.7% | DNPSLSIDLPFQLLRTLLELARTQSQRERAEQNAIIFASV-NH2 [SEQ ID NO 182]
29 | 90.8 nM | 62% | > 100 nM | 9% | IVLSLDVPIGLLQILLEQTKADQLAQQAHSNRKLLDIA-NH2 [SEQ ID NO 159]
30 | 17.8 nM | 93% | 978 nM | 26% | ZGPPISIDVPTYLLRILIEIEKQEKEKQQATTNARILARV (C-terminal amide) [SEQ ID NO 169]
31 | 75 nM | 83% | 1000 nM | 9% | ZGPPISIDVPTYLLRKMIEIEKQEKEKQQATTNARILARV (C-terminal amide) [SEQ ID NO 170]
32 | 17.6 nM | 100% | 206 nM | 99% | ZGPPISIDVPFQLLRILIEIEKQEKEKQQATTNARILARV (C-terminal amide) [SEQ ID NO 171]
33 | 3.72 nM | 96.5% | 486 nM | 77.3% | DNPSLSIDLPFFLLRTLLELARTQSQRERAEQNAIIFASV-NH2 [SEQ ID NO 184]
34 | 7.93 nM | 100% | 415 nM | 57.5% | DNPSLSIDLPFYLLRTLLELARTQSQRERAEQNAIIFASV-NH2 [SEQ ID NO 183]
35 | 5.63 nM | 97.7% | 613 nM | 69.2% | DNPSLSIDLPLYLLRTLLELARTQSQRERAEQNAIIFASV-NH2 [SEQ ID NO 177]
36 | 10.2 nM | 92.5% | 477 nM | 78.9% | DNPSLSIDLPLHLLRTLLELARTQSQRERAEQNAIIFASV-NH2 [SEQ ID NO 179]
